This passage reports expression_or_secretion, Kd and koff results from article PMC5033645 (Nature structural & molecular biology, 2016).

Data set [1] is described as follows: pan-SV2 immunoblot of neuron lysates. To be noted: glycan lost. (A western blot detects proteins with antibodies after separation by electrophoresis.)
Data set [2] deals with BoNT/A1 receptor-binding domain (HCA), wild type (UniProt P0DPI0 872-1296). The data set can be described thus: SPR. Background: In SPR one partner is held on a chip, and binding of the other changes the refractive index at the surface.

B1: SV2A: SV2A-N573A (protein)
parent chain: MEEGFRDRAAFIRGAKDIAKEVKKHAAKKVVKGLDRVQDEYSRRSYSRFEEEEDDDDFPAPADGYYRGEGAQDEEEGGASSDATEGHDEDDEIYEGEYQGIPRAESGGKGERMADGAPLAGVRGGLSDGEGPPGGRGEAQRRKDREELAQQYETILRECGHGRFQWTLYFVLGLALMADGVEVFVVGFVLPSAEKDMCLSDSNKGMLGLIVYLGMMVGAFLWGGLADRLGRRQCLLISLSVNSVFAFFSSFVQGYGTFLFCRLLSGVGIGGSIPIVFSYFSEFLAQEKRGEHLSWLCMFWMIGGVYAAAMAWAIIPHYGWSFQMGSAYQFHSWRVFVLVCAFPSVFAIGALTTQPESPRFFLENGKHDEAWMVLKQVHDTNMRAKGHPERVFSVTHIKTIHQEDELIEIQSDTGTWYQRWGVRALSLGGQVWGNFLSCFSPEYRRITLMMMGVWFTMSFSYYGLTVWFPDMIRHLQAVDYAARTKVFPGERVEHVTFNFTLENQIHRGGQYFNDKFIGLRLKSVSFEDSLFEECYFEDVTSSNTFFRNCTFINTVFYNTDLFEYKFVNSRLVNSTFLHNKEGCPLDVTGTGEGAYMVYFVSFLGTLAVLPGNIVSALLMDKIGRLRMLAGSSVLSCVSCFFLSFGNSESAMIALLCLFGGVSIASWNALDVLTVELYPSDKRTTAFGFLNALCKLAAVLGISIFTSFVGITKAAPILFASAALALGSSLALKLPETRGQVLQ
In the case of B1, in data set [1] (control: WT SV2A), the expression_or_secretion result is listed as “no change”.

B2: SUMO-bSV2C: human SV2C-L4 (V473-T567) with 6xHis/SUMO tag, expressed in E. coli (domain or fragment)
chain: VERDKYANFTINFTMENQIHTGMEYDNGRFIGVKFKSVTFKDSVFKSCTFEDVTSVNTYFKNCTFIDTVFDNTDFEPYKFIDSEFKNCSFFHNKT
For the molecule B2, in data set [2], the Kd is about 86 nM and the koff was determined as 0.11 s⁻¹.

B3: SV2C (full length, in neurons): SV2C-N559A (protein)
parent chain: MEDSYKDRTSLMKGAKDIAKEVKKQTVKKVNQAVDRAQDEYTQRSYSRFQDEDDDDDYYPPGETYSGEANDDEGSSEATEGHDEEDEIYEGEYQGIPSTNQGKDSIVSVGQPKGDEYKDRRELESERRADEEELAQQYELIIQECGHGRFQWALFFVLGMALMADGVEVFVVGFVLPSAETDLCIPNSGSGWLGSIVYLGMMVGAFFWGGLADKVGRKQSLLICMSVNGFFAFLSSFVQGYGFFLLCRLLSGFGIGGAIPTVFSYFAEVLAREKRGEHLSWLCMFWMIGGIYASAMAWAIIPHYGWSFSMGSAYQFHSWRVFVIVCALPCVSSVVALTFMPESPRFLLEVGKHDEAWMILKLIHDTNMRARGQPEKVFTVNKIKTPKQIDELIEIESDTGTWYRRCFVRIRTELYGIWLTFMRCFNYPVRENTIKLTIVWFTLSFGYYGLSVWFPDVIKHLQSDEYALLTRNVQKDKYANFSINFTMENQVHTGMEYDNGRFLGVKFKSVTFKDSVFKSCTFDDVTSVNTYFKNCTFIDTLFENTDFEPYKFIDSEFQNCSFLHNKTGCQITFDDDYSAYWIYFVNFLGTLAVLPGNIVSALLMDRIGRLTMLGGSMVLSGISCFFLWFGTSESMMIGMLCLYNGLTISAWNSLDVVTVELYPTDRRATGFGFLNALCKAAAVLGNLIFGSLVSITKAIPILLASTVLVCGGLVGLRLPDTRTQVLM
For the molecule B3, the expression_or_secretion entry in data set [1] (control: WT SV2C) was “decreases”.

B4: SV2B: SV2B-N516A (protein)
parent chain: MDDYRYRDNYEGYAPNDGYYRGNEQNPEEDAQSDVTEGHDEEDEIYEGEYQGIPHPDDVKSKQTKMAPSRADGLRGQADLMAERMEDEEQLAHQYETIIDECGHGRFQWTLFFVLVLALMADGVEVFVVSFALPSAEKDMCLSSSKKGMLGLIVYLGMMAGAFILGGLADKLGRKKVLSMSLAINASFASLSSFVQGYGAFLFCRLISGIGIGGSLPIVFAYFSEFLSREKRGEHLSWLGIFWMTGGIYASAMAWSIIPHYGWGFSMGTNYHFHSWRVFVIVCALPATVSMVALKFMPESPRFLLEMGKHDEAWMILKQVHDTNMRAKGTPEKVFTVSHIKTPKQMDEFIEIQSSTGTWYQRWLVRFMTIFKQVWDNALYCVMGPYRMNTLILAVVWFTMALSYYGLTVWFPDMIRYFQDEEYKSKMKVFFGEHVHGATINFTMENQIHQHGKLVNDKFIKMYFKHVLFEDTFFDKCYFEDVTSTDTYFKNCTIESTTFYNTDLYKHKFIDCRFINSTFLEQKEGCHMDFEEDNDFLIYLVSFLGSLSVLPGNIISALLMDRIGRLKMIGGSMLISAVCCFFLFFGNSESAMIGWQCLFCGTSIAAWNALDVITVELYPTNQRATAFGILNGLCKLGAILGNTIFASFVGITKVVPILLAAASLVGGGLVALRLPETREQVLM
On to B4, for which, in data set [1] (control: WT SV2B), the expression_or_secretion entry was “decreases”.

The Kd is the constant that tells how readily two partners part at equilibrium. A higher Kd goes with a looser complex. The term koff denotes a measure of how fast the partners let go of each other. A high value points to fast dissociation.
